To fix the notation:
B1: glmS ribozyme (parent)
chain: AUAAAAGCGCCAGAACUACAGAAAUGUAGUUGACGAGGAGGAGGUUUAUCGAAUUUUCGGCGGAUGCCUCCAAA

± gives the standard error. Fewer inactive variants are shown than the library holds.

In the first data set the parent is B1. Briefly: self-cleavage kobs at 2500 uM GlcN6P; higher = faster cleavage; RNA array. The conditions noted are these: with glucosamine-6-phosphate. In outline: (§1)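 Glucosamine-6-phosphate, from 40 μM to 10 mM in HEPES/KCl/Mg(OAc)2 buffer, was flowed over sequenced MiSeq chips carrying barcoded ribozyme variants transcribed in situ by E. coli RNA polymerase. A hybridised Cy3 probe tracked the variants at 37 °C as tiles were imaged over ~14 h. kobs, kcat and KM were obtained by fitting normalised per-tile medians to exponential decays and then applying weighted Michaelis–Menten fits across concentrations.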
For A14G C16A U45C G66C, the “self-cleavage kobs at 2500 uM GlcN6P” value was 0.000167 ± 3.4e-05 s⁻¹.

Consider G7A C34U A36C, for which the “self-cleavage kobs at 2500 uM GlcN6P” value was under 1e-05 s⁻¹.

In the case of G7C G9C C61G G62U, the “self-cleavage kobs at 2500 uM GlcN6P” value was under 1e-05 s⁻¹. Still for that read-out and setting: in the case of G37A G44A U56C C71A it was under 1e-05 s⁻¹. On to G9U U31G G44U C61U, for which the “self-cleavage kobs at 2500 uM GlcN6P” value was under 1e-05 s⁻¹. On the same count and under the same terms, the result for C34A U55G A64G reads under 1e-05 s⁻¹; that for A36U G51U G63U, under 1e-05 s⁻¹; that for C8G G37C G43A G59A, under 1e-05 s⁻¹. Same read-out and setting: the result for A12U G37U G38A reads under 1e-05 s⁻¹. The same measure, in the same setting: in the case of C50A U69C it was 6.67e-05 ± 2e-05 s⁻¹; in that of A6C G37C, under 1e-05 s⁻¹. Regarding G13A A52C G60A, the “self-cleavage kobs at 2500 uM GlcN6P” value was under 1e-05 s⁻¹. On to G32A U54A C70G, for which the “self-cleavage kobs at 2500 uM GlcN6P” value is 0.000378 ± 5.3e-05 s⁻¹. For C34A C50U C67A, the “self-cleavage kobs at 2500 uM GlcN6P” value was under 1e-05 s⁻¹.

Consider G29A C50A C67G, for which the “self-cleavage kobs at 2500 uM GlcN6P” value is 8.63e-05 ± 3.6e-05 s⁻¹. Still for that read-out and setting: in the case of C8G G29C G38C U57C it was under 1e-05 s⁻¹.

Regarding U30G U45A C58G, the “self-cleavage kobs at 2500 uM GlcN6P” value was 9.63e-05 ± 1.6e-05 s⁻¹. For A15G G32U C71G, the “self-cleavage kobs at 2500 uM GlcN6P” value is 8.85e-05 ± 2.5e-05 s⁻¹. Same read-out and setting: in the case of A33U C34U A39C it was under 1e-05 s⁻¹. In the case of A14G U55G U69A, the “self-cleavage kobs at 2500 uM GlcN6P” value was determined as 0.000475 ± 8.8e-05 s⁻¹. Same read-out and setting: in the case of C10A A12U G37U G44U C50G A53G C68U it was under 1e-05 s⁻¹; in that of A39U A52C C71A, under 1e-05 s⁻¹. In the case of U30G A33C G66U, the “self-cleavage kobs at 2500 uM GlcN6P” value was under 1e-05 s⁻¹. On the same count and under the same terms, the result for A12U A36C G40U U46A C61G reads under 1e-05 s⁻¹; that for G37A G60U, under 1e-05 s⁻¹; that for G7U C68A, under 1e-05 s⁻¹.

Take A33U A42G C61A G66A: the “self-cleavage kobs at 2500 uM GlcN6P” value was under 1e-05 s⁻¹. As for A33U A64C C70A, the “self-cleavage kobs at 2500 uM GlcN6P” value was under 1e-05 s⁻¹.

A6U A14G U49C: the “self-cleavage kobs at 2500 uM GlcN6P” value is under 1e-05 s⁻¹. Same read-out and setting: in the case of C10U U31A A39U G51C it was under 1e-05 s⁻¹.

Turning to U31G G38C G44A, the “self-cleavage kobs at 2500 uM GlcN6P” value was under 1e-05 s⁻¹. For the variant U31A U49G, the “self-cleavage kobs at 2500 uM GlcN6P” value amounted to 0.000183 ± 3.1e-05 s⁻¹. The same measure, in the same setting: the result for A6G G13U G40A C71U reads under 1e-05 s⁻¹; that for A12G A14U U49C C50G C61U, under 1e-05 s⁻¹; that for A12G C34U C68A, under 1e-05 s⁻¹.

On to G40U U49A A64U C70U, for which the “self-cleavage kobs at 2500 uM GlcN6P” value was under 1e-05 s⁻¹. Take U31A C70A: the “self-cleavage kobs at 2500 uM GlcN6P” value was found to be 5.68e-05 ± 1.7e-05 s⁻¹. On the same count and under the same terms, the result for G29C C34U G37U C70U reads 0.000116 ± 3.3e-05 s⁻¹; that for A15G A64C G66A, 0.000144 ± 4.8e-05 s⁻¹. Still for that read-out and setting: the result for A15G U46A A48U reads 5.82e-05 ± 2.3e-05 s⁻¹; that for G9A A33G G43C, under 1e-05 s⁻¹. As for C8G A12C A42U C68U, the “self-cleavage kobs at 2500 uM GlcN6P” value was under 1e-05 s⁻¹. In the case of C50U G60A G63A, the “self-cleavage kobs at 2500 uM GlcN6P” value was under 1e-05 s⁻¹. On the same count and under the same terms, in the case of A6U A14C U45A A48G G66U it was under 1e-05 s⁻¹; in that of U31G A72G, 0.00235 ± 0.00096 s⁻¹. On the same count and under the same terms, the result for A15U G29A G62A reads under 1e-05 s⁻¹; that for U46C A52C G60U C61U, under 1e-05 s⁻¹; that for C50A A53U C67U C68G, 4.54e-05 ± 2.1e-05 s⁻¹. Still for that read-out and setting: the result for U30C U65G C67G reads 0.000128 ± 3.3e-05 s⁻¹; that for G13C A14G U46A, 5.24e-05 ± 1.3e-05 s⁻¹; that for A14U C50U G63C, under 1e-05 s⁻¹. Regarding A36U U54G U57A, the “self-cleavage kobs at 2500 uM GlcN6P” value is under 1e-05 s⁻¹. The same measure, in the same setting: the result for G9A U56G G60A reads under 1e-05 s⁻¹.

A15U C16G A33U U49C: the “self-cleavage kobs at 2500 uM GlcN6P” value is under 1e-05 s⁻¹.

On to U57A C67A C71A, for which the “self-cleavage kobs at 2500 uM GlcN6P” value is 0.000181 ± 4.1e-05 s⁻¹. For G32C A39C C61G C70U, the “self-cleavage kobs at 2500 uM GlcN6P” value is under 1e-05 s⁻¹. The same measure, in the same setting: the result for U30G G44A reads 6.16e-05 ± 1.7e-05 s⁻¹.

Turning to A33G G59C C68U, the “self-cleavage kobs at 2500 uM GlcN6P” value is under 1e-05 s⁻¹. On the same count and under the same terms, the result for G41U U45C A64U reads under 1e-05 s⁻¹; that for A15U U46C C70G, 8.21e-05 ± 2.2e-05 s⁻¹; that for G13U A39C U56G, 3.76e-05 ± 1.4e-05 s⁻¹. C10U A42C G43U C67A: the “self-cleavage kobs at 2500 uM GlcN6P” value is under 1e-05 s⁻¹. As for A6U A14C G35A, the “self-cleavage kobs at 2500 uM GlcN6P” value is under 1e-05 s⁻¹. Still for that read-out and setting: the result for A12G C34A U45A reads under 1e-05 s⁻¹.

Regarding C16G G32U G66A, the “self-cleavage kobs at 2500 uM GlcN6P” value turned out to be 0.000109 ± 3.9e-05 s⁻¹.

In the case of A15G U55A A64U, the “self-cleavage kobs at 2500 uM GlcN6P” value stood at 9.74e-05 ± 1.8e-05 s⁻¹. Consider C34G A36U G40A A64C C71G, for which the “self-cleavage kobs at 2500 uM GlcN6P” value was under 1e-05 s⁻¹. For G60U C67A U69A, the “self-cleavage kobs at 2500 uM GlcN6P” value was under 1e-05 s⁻¹. In the case of G35U G60A C70G, the “self-cleavage kobs at 2500 uM GlcN6P” value is under 1e-05 s⁻¹.

Consider A53G C61G G62A, for which the “self-cleavage kobs at 2500 uM GlcN6P” value is under 1e-05 s⁻¹. The same measure, in the same setting: in the case of G9U G13U G29C G32C A33G it was under 1e-05 s⁻¹. Still for that read-out and setting: the result for G37U A42C U55G reads under 1e-05 s⁻¹; that for G9U C11U A33G G40U U69G, under 1e-05 s⁻¹.

In the next data set the parent is B1. Briefly: self-cleavage kobs at 10000 uM GlcN6P; higher = faster cleavage; RNA array. The conditions noted are these: with glucosamine-6-phosphate. The method, boiled down:
as §1
Consider A6C G37C, for which the “self-cleavage kobs at 10000 uM GlcN6P” value was under 1e-05 s⁻¹. As to U30G U45A C58G, the “self-cleavage kobs at 10000 uM GlcN6P” value is 0.000163 ± 4.1e-05 s⁻¹.

Take A14G U55G U69A: the “self-cleavage kobs at 10000 uM GlcN6P” value worked out at 0.000104 ± 2.4e-05 s⁻¹. G37A G60U: the “self-cleavage kobs at 10000 uM GlcN6P” value was under 1e-05 s⁻¹.

As for U31A U49G, the “self-cleavage kobs at 10000 uM GlcN6P” value amounted to 0.000277 ± 4.5e-05 s⁻¹. Same read-out and setting: in the case of U31A C70A it was 0.000146 ± 3e-05 s⁻¹. In the case of G29C C34U G37U C70U, the “self-cleavage kobs at 10000 uM GlcN6P” value worked out at 3.91e-05 ± 1.8e-05 s⁻¹.

Regarding U31G A72G, the “self-cleavage kobs at 10000 uM GlcN6P” value came to 0.00988 ± 0.0032 s⁻¹. Take A15U G29A G62A: the “self-cleavage kobs at 10000 uM GlcN6P” value is under 1e-05 s⁻¹. Same read-out and setting: the result for U46C A52C G60U C61U reads under 1e-05 s⁻¹. As for U30C U65G C67G, the “self-cleavage kobs at 10000 uM GlcN6P” value came out at 2.81e-05 ± 1.3e-05 s⁻¹.

Take U30G G44A: the “self-cleavage kobs at 10000 uM GlcN6P” value stood at 6.05e-05 ± 2e-05 s⁻¹. Same read-out and setting: in the case of A15U U46C C70G it was 3.23e-05 ± 1.5e-05 s⁻¹; in that of C10U A42C G43U C67A, under 1e-05 s⁻¹. As to A12G C34A U45A, the “self-cleavage kobs at 10000 uM GlcN6P” value was under 1e-05 s⁻¹.

Consider C16G G32U G66A, for which the “self-cleavage kobs at 10000 uM GlcN6P” value was determined as 0.000209 ± 5.7e-05 s⁻¹. Regarding G9U C11U A33G G40U U69G, the “self-cleavage kobs at 10000 uM GlcN6P” value was under 1e-05 s⁻¹.

The record behind these values is the supplement of paper PMC7125110.
